Data published in patent US20230265192A1 (GIGAGEN, published 2023).

Columns and labels:
mouse CTLA-4 = mouse CTLA-4 (mouse, UniProt P09793 36-161, limits assumed); experiment: BLI (Octet)
Procedure, shortened: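 Antibodies captured on anti-human IgG Fc (AHC) biosensors (Octet Red96); antigen analyte from 300 nM in 6 serial 1:3 dilutions. Kinetics from global fitting to a 1:1 binding model.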

[1] = biological target: T1, His-tagged human CTLA-4 (CT4-H5229; Acro Biosystems) (human, UniProt P16410 36-161); experiment: SPR (Carterra)
T1 construct: bought soluble protein; also called soluble human CTLA-4; recombinant human CTLA-4; not shown: His tag
T1 sequence (P16410 36-161 limits assumed): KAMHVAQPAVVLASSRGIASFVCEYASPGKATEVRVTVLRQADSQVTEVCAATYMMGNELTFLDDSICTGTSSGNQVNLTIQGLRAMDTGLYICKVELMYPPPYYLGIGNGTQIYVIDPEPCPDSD
Procedure, shortened: (§1)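 mAb supernatants captured, at two densities, on an anti-human IgG Fc lawn. His-tagged human CTLA-4 injected at 1.95, 7.8, 31.25, 125 and 500 nM in HBS-EPC pH 7.4 with 1.0 mg/mL BSA, as a non-regenerative series with 5-min association and 15-min dissociation. Double-referenced data fitted for ka, kd and KD.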

[2] = biological target: T1, His-tagged human CTLA-4 (CT4-H5229; …); experiment: SPR (Carterra); remark: listed apart in the source
Procedure, shortened: as §1

[3] = biological target: T2, human CTLA-4 expressed on the cell surface (human, UniProt P16410 36-223); experiment: cell-based or functional assay
T2 sequence (P16410 36-223 limits assumed): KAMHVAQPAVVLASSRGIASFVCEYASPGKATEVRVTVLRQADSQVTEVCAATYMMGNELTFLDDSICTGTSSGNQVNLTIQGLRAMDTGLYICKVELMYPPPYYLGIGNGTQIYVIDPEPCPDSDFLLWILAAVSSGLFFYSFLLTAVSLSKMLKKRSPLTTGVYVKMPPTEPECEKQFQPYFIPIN

[4] = biological target: T1, His-tagged human CTLA-4 (CT4-H5229; …); experiment: SPR (Carterra), soluble human CTLA-4
[5] = biological target: T3, His-tagged cynomolgus CTLA-4 (CT4-C5227; Acro Biosystems) (cynomolgus, UniProt G7PL88 36-161); experiment: BLI (Octet), single antigen concentration
T3 construct: also called soluble cynomolgus CTLA-4; cyno CTLA-4
T3 sequence (G7PL88 entry or part of it limits assumed, form in doubt): as the sequence (P16410 36-161 limits assumed) above, with S14N, I18T, L106M counted along it
Experimental: (§2) Table 23. In vitro characterization of scFvs reformatted as full-length antibodies. kon, koff, and KD of the indicated CTLA-4 mAbs for soluble human CTLA-4 was determined by SPR (Carterra). Geometric MFI of the indicated CTLA-4 mAbs bound to CTLA-4⁺ or CD27⁺ CHO cells as detected by a secondary human IgG antibody and flow cytometry. Affinity (KD) of the indicated CTLA-4 mAbs for soluble cynomolgus CTLA-4 was determined by a single antigen concentration BLI measurement (Octet). […] Due to constraints on sample size in each Promega bioassay kit, this set of aCTLA-4 mAbs was analyzed using multiple plates (plate letters correspond to Plate A-D in FIG. 20D).
Antibodies were loaded at 5 μg/mL onto Protein A biosensors that were dipped into 80 nM antigen, and kinetic constants were calculated using a monovalent model.

[6] = biological target: T2, human CTLA-4 expressed on the cell …; experiment: flow cytometry, 10 µg/mL mAb, geometric MFI
Experimental: as §2
(§3) To determine if the CTLA-4 mAbs bound the appropriate antigen expressed on the surface of mammalian cells, CHO cell lines stably expressing human CTLA-4 or an irrelevant antigen (CD27) were generated. Cells (0.5×10⁶ each cell line) were combined and washed with MACS buffer (Dulbecco's Phosphate Buffered Saline [DPBS], with 0.5% bovine serum albumin [BSA], and 2 mM ethylenediaminetetraacetic acid [EDTA]). The cells were incubated with 10 μg/mL anti-CTLA-4 for 30 min at 4° C., then excess, unbound mAbs were removed by washing twice with MACS buffer. The cells were then stained with PE-conjugated anti-Human IgG Fc antibody (clone M1310G05, BioLegend 410720, San Diego, Calif., USA) to detect bound anti-CTLA-4 and with fluorescein isothiocyanate (FITC)-conjugated anti-CD27 (clone 0323, BioLegend 302806, San Diego, Calif., USA) to distinguish the cells expressing the irrelevant antigen. Cells were washed twice with MACS buffer, fixed with 4% paraformaldehyde fixation buffer (BioLegend 420801, San Diego, Calif., USA) for 20 minutes at room temperature and washed twice more with MACS buffer.

CD27 on CHO cells = biological target: T4, CD27 on CHO cells (UniProt P26842 20-260, limits assumed); experiment: flow cytometry, 10 µg/mL mAb, geometric MFI
T4 construct: whole, on cells; also called CD27+ CHO cells; irrelevant antigen (CD27)
T4 sequence (P26842 20-260 limits assumed): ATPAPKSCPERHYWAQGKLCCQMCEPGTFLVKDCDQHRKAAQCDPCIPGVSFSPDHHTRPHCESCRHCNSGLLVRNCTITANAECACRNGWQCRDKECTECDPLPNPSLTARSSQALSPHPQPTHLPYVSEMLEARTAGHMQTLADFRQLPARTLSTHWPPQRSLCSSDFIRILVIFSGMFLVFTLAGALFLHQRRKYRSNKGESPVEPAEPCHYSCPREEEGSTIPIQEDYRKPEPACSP
Experimental: as §2, §3

[7] = biological target: T5, recombinant human CTLA-4-Fc (7268-CT, R&D Systems) (human, UniProt P16410 36-162); experiment: blocking ELISA, plate rhCTLA4-Fc, competitor rhCD80-His
T5 construct: bought; also called rhCTLA-4-Fc; rhCTLA4-Fc; Fc part of the bought chimera not given
T5 sequence (P16410 36-162): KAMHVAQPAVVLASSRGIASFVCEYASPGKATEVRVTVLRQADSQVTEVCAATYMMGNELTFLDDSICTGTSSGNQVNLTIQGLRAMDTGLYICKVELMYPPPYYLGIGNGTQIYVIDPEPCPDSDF
Experimental: (§4) Plates were coated with rhCTLA4-Fc and then blocked with 1×PBST with 5% w/v nonfat dry milk. After blocking a dilution series of the indicated antibody was added to the plate.

[8] = biological target: T5, recombinant human CTLA-4-Fc (7268-CT, …); experiment: blocking ELISA, plate rhCTLA4-Fc, competitor rhCD86-His
Experimental: as §4

Sequence of mouse CTLA-4 (P09793 36-161 limits assumed): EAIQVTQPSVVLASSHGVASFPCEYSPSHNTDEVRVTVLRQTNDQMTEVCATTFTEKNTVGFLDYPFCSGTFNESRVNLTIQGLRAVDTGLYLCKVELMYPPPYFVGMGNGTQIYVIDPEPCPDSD

Kd (mouse CTLA-4) | Kd [1] | Kd [2] | koff [2] | kon [2] | Promega assay % inhibition [3] | Promega assay antagonist (EC50, ug/mL) [3] | Kd [4] | koff [4] | kon [4] | Kd [5] | MFI of CTLA-4+ CHO cells [6] | MFI of CD27+ CHO cells (CD27 on CHO cells) | CD80 % inhibition [7] | EC50 [7] | CD86 % inhibition [8] | EC50 [8] | binding result (mouse CTLA-4) | Binder
39.4 nM | 4.6 nM | 4.6 nM | 0.00042 s⁻¹ | 90000 M⁻¹ s⁻¹ | 100% | 0.18 µg/mL | 4.6 nM | 0.00042 s⁻¹ | 90000 M⁻¹ s⁻¹ | 2.2 nM | 1030 | 17.2 | 96.3% | 0.0705 µg/mL | 90.6% | 0.122 µg/mL |  | antibody A5 (L5H5) (antibody, V domains shown, also called aCTLA-4.28; CTLA4.A5) VH: QVQLVESGGGVVQPGRSLRLSCAASGFTFSSYGMHWVRQAPGKGLEWVAVIWYDGNNKYYADSVKGRFTISRDNSKNTLYLQMYSLRAEDTAVYYCARGGILAAGIFDYWGQGTLVTVSS VL: EIVLTQSPGTLSLSPGDRATLSCRASQSGSSSYLAWYQQKPGQAPRLLIYGASSRATGIPDRFSGSGSGTDFTLTISRLEPEDFAVYYCQQYGTSPFTSGPGTKVDIK
 | 5.7 nM | 5.7 nM | 0.00036 s⁻¹ | 64000 M⁻¹ s⁻¹ | 11.5% | 0.17 µg/mL | 5.7 nM | 0.00036 s⁻¹ | 64000 M⁻¹ s⁻¹ | 0.8 nM | 854 | 15.3 | 92.1% | 0.996 µg/mL | 78.8% | 1.98 µg/mL | no binding (tested: 300 nM) | antibody A7 (L7H7) (antibody, V domains shown, also called aCTLA-4.3; CTLA4.A7) VH: QVQLVESGGGVVQPGRSLRLSCAASGFTLSSFGMHWVRQAPGKGLEWVAVIWYDGSNKYYADSVKGRFIISRDNSKTALYLQMNSLRAEDTAVYYCARAHYFGAFDIWGQGTMVTVSS VL: not shown
 | 5.1 nM | 5.1 nM | 0.00052 s⁻¹ | 100000 M⁻¹ s⁻¹ | 75.4% | 0.12 µg/mL | 5.1 nM | 0.00052 s⁻¹ | 100000 M⁻¹ s⁻¹ | 3.1 nM | 1120 | 11.7 | 95.4% | 0.101 µg/mL | 91.5% | 0.145 µg/mL | no binding (tested: 300 nM) | antibody A2 (L2H2) (antibody, V domains shown, also called aCTLA-4.4; CTLA4.A2) VH: QVQLVESGGGVVQPGRSLRLSCAASGFTFSNYGMNWVRQAPGKGLEWVAVIWYDGRNKHYADSVKGRFTISRDNSKNTLYLQMNSLRAEDTAVYYCARGGDWGPYFDYWGQGTLVTVSS VL: not shown
